T1: in-house generated I domain of α11β1 (human, UniProt Q9UKX5 159-349, limits assumed)
T1 construct: domain: I domain; also called human α11β1 I domain; α11β1 I Domain
T1 sequence (looked up): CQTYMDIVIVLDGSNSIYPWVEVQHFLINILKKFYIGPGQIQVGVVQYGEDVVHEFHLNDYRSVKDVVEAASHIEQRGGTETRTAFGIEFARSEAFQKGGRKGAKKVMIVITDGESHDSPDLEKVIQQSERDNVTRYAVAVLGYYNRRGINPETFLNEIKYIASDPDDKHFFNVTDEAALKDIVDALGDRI

B1: A11B1_6G4 (antibody, V domains shown)
VH: QQQLEESGGGLVKPGGTLTLTCKASGVALNPYYYMCWVRQAPGKGLEWIACVDADSSGSTYYASWAKGRFTISKTSSTTVTLKMTSLTAADTATYFCARESVDYSSVGIGYVHGTDGLWGPGTLVTVSS
VL: DIVVTQTPSSVSAAVGGTVTIKCQASQSISNYFSWYQQKPGQPPKLLIYRASTLASGVPSRFKGSGSGTEFTLTISDLECADAATYYCQCTYGRSNSNFFYGFGGGTEVVVKG
notes: recombinant rabbit IgG, full chains
B2: 6-O17 (antibody, V domains shown)
VH: QVQLQQPGAELVKPGASVKLSCKASGYTFTSYWMHWIKQRPGQGLEWIGEINPSNGGSNYNEKFKSKATLTVDKSSSTAYMQLSSLTSEDSAVYHCKSRGYWGQGTTLTVSS
VL: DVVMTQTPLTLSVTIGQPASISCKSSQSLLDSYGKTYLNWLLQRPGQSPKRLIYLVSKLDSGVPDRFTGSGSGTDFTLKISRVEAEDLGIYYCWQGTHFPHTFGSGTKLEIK
notes: mouse hybridoma IgG
B3: 7D8B10 (antibody, V domains shown)
VH: EVKLEESGGGLVQPGMSVKLSCATSGFIFSDYWMEWVRQAPGKGLEWVAEIRNKANNYATYYGKSMKGRFTISRDDSKSIVYLQVNSIRSEDTAIYYCAPNFDYWGQGVMVTVSS
VL: DVVLTQTPPTLSATIGQSVSISCRSSQSLLHSTGNTYLNWLLQRPGQPPQLLIYLVSRLESGVPNRFSASGSGTDFTLKISGIEAEDLGVYYCVQSSHTPYTFGTGTKLELK
notes: rat hybridoma mAb
B4: A11B1_3B1 (antibody, V domains shown)
VH: QEQLEESGGGLVKPEGSLTLTCKASGFDLSSGYDMCWVRQAPGKGLEWIACIYADYSGSTYYASWVNGRFTISSSTSLNTVDLKMTSLTAADTATYFCARGATGNGGYGYYFNLWGPGTLVTVSS
VL: DIVMTQTPASVSEPVGGTVTIKCQASQNINSGLAWYQQKPGQPPKLLIYKASTLASGVSSRFKGSGSGTEFTLTISDLECADAATYYCQTYYYSSSSSDNAFGGGTEVVVKG
notes: as for B1
B5: A11B1_5A7 (antibody, V domains shown)
VH: QSLEESGGGLVQPEGSLTLACTASGFSFSSYYYICWVRQAPGTGLEWIGCINTGSDDTHYASWLKGRFTFSKASSTTLTLQMTSLTAADTATYFCARSSGSSDDAYDLWGPGTLVTVSS
VL: DVVMTQTPASVSEPVGGAVTIKCQASQSIGSNLAWYQHKPGQPPKLLIYFASSLASGVSSRFKGGRSGTQFTLTISDLECADAATYYCHCTYYPLSYVTFGGGTEVVVKG
notes: as for B1
B6: A11B1_6C7 (antibody, V domains shown)
VH: QQQLEESGGGLVKPGGTLTLTCKASGIDFSSYYYMCWVRQAPGKGLELIVCIYTSSGGTWYASWVNGRLTISRSTSLNTVDLKMTSLTAADTATYFCARGVYSGSSDYPTRLDLWGQGTLVTVSL
VL: AIEMTQSPPSLSASVGETVRIRCLASEDIYSGISWYQQKPEKPPTLLISGASNLESGVPPRFSGGGSGTDYTLTIGGVQAEDVATYYCLGGYSFSSTGLTFGAGTKVEIKR
notes: as for B1
B7: A11B1_16G7 (antibody, V domains shown)
VH: QEQLVESGGDLVKPGASLTLTCTASGFSFNKNYWMCWVRQAPGKGLEWIGCIYNGDGNTYYASWVNGRFTISKTSSTTVTLQMTSLTVADTAIYFCARLLNMWGPGTLVTVSS
VL: DIVMTQTPASVEAAVGGTVTIKCQASESIGNALAWYQQKPGQPPKLLIYTAATLASGVPSRFSGSGSGTEFTLTISGVQCDDAATYYCQSYYFTSVSSYGNAFGGGTEVVVKG
notes: as for B1
B8: A11B1_6F9 (antibody, V domains shown)
VH: QSLEESGGDLVKPGASLTLTCTASGSSFSSTYWNCWVRQAPGKGLEWIACINAGSGTTYYASWAKGRFTVSKTSSTTVTLQMTSLTAADTATYFCTRDSDGRFSSGYYFNLWGPGTLVTVSS
VL: AQVLTQTASPVSAAVGGTVTINCQSSQSVYDNNWLAWYQQKPGQPPKLLIDDASKLTSGVSSRFKGSGSGTQFTLTISGVQCDDAATYYCQGAYYSSGWYWAFGGGTEVVVKG
notes: as for B1
B9: 7-H14 (antibody, V domains shown)
VH: QVQLQQPGAELVRPGASVKLSCKPSGYTFTSYWMNWVKQRPGQGLEWIGMIDPSDSETHYNQMFKDKATLTVDKSSNTAYMQLSSLTSEDSAVYYCAQIYYAYDKAYWGQGTLVTVSA
VL: DIVMSQSPSSLAVSVGEKVTMSCKSSQSLLYSSHQKNYLAWYQQKPGQSPKLLIYWASTRESGVPDRFTGSGSGTDFSLTISSVKAEDLAVYYCQEYYSWTFGGGTKLEIK
notes: mouse hybridoma IgG
B10: A11B1_5D7 (antibody, V domains shown)
VH: QEQLVESGGGLVQPEGSLTLTCKASGFDFSSNAMCWVRQAPGKGLEWIACIYNGDGSTYYASWVNGRFTISKTSSTTVTLQMTSLTAADTATYFCARGLSNWNRDNLWGPGTLVTVSS
VL: AQVLTQTPSSVSAAVGGTATINCQASQSLYSPKNLAWYQQTPGQPPKLLIYSASKLASGVPSRFKGSGSGTQFTLTISGVQCDDAAIYYCQGEFSCTTAACFAFGGGTEVVVKG
notes: as for B1
B11: A11B1_4E1 (antibody, V domains shown)
VH: QSLEESGGDLVKPGTSLTLSCTASGFSFGSYYYMCWVRQAPGKGLEWIACIDVGSSGDTYYASWVNGRFTISKTSSTTVTLQMTSLTAADTATYFCARDDTAAGGFGNLELWGPGTLVTVSS
VL: AFELTQTPSSVSEPVGGTVTIKCQASQSIYSYFSWYQQKPGQPPKRLIYQASTLASGVPSRFKGSGSGTDFTLTISDLECADAATYYCQNNYGRGSGSYFFGFGGGTEVVVKG
notes: as for B1

target: T2, α11β1 on human myofibroblasts (MF) (human, UniProt Q9UKX5 23-1188; P05556 21-798); test: FACS on human myofibroblasts
T2 construct: whole, on cells
Method: Human Pulmonary Fibroblasts (ScienCell) were cultured in complete Fibroblast Growth Medium (ScienCell) until 80% confluent in T-150 flasks. Cells were washed and harvested using Accutase. Cells were seeded into T-150 flasks at 7,500 cells/cm² in complete FGF and cultured for 72 hours. Cells were then washed and starved in serum reduced medium for 24 hours. After starvation, cells were treated with TGFβ-1 (R&D Systems) for 72 hours. Cells were harvested using Accutase and seeded in 96-well conical bottom plates. Cells were blocked with Heat Inactived Fetal Bovine Serum (Gibco) for 30 minutes at 4° C. Cells were then incubated with anti-α11 antibodies at the doses described in each figure for 30 minutes at 4° C. A human anti-α11 antibody (Creative BioLabs) was included as a positive control as well as the appropriate IgG isotype negative controls. Cells were washed twice and incubated with PE conjugated secondary antibodies specific to the IgG class of the anti-α11 antibodies being tested for 30 minutes at 4° C. Cells were washed twice and fixed in 1% PFA for 30 minutes. Cells were acquired on a FACS Verse […]. Data were analyzed by gating on single cells and determining the geometric Mean Fluorescence Intensity (gMFI) in the PE channel for each sample.

T2 sequence (Q9UKX5 23-1188, chain 1 of 2): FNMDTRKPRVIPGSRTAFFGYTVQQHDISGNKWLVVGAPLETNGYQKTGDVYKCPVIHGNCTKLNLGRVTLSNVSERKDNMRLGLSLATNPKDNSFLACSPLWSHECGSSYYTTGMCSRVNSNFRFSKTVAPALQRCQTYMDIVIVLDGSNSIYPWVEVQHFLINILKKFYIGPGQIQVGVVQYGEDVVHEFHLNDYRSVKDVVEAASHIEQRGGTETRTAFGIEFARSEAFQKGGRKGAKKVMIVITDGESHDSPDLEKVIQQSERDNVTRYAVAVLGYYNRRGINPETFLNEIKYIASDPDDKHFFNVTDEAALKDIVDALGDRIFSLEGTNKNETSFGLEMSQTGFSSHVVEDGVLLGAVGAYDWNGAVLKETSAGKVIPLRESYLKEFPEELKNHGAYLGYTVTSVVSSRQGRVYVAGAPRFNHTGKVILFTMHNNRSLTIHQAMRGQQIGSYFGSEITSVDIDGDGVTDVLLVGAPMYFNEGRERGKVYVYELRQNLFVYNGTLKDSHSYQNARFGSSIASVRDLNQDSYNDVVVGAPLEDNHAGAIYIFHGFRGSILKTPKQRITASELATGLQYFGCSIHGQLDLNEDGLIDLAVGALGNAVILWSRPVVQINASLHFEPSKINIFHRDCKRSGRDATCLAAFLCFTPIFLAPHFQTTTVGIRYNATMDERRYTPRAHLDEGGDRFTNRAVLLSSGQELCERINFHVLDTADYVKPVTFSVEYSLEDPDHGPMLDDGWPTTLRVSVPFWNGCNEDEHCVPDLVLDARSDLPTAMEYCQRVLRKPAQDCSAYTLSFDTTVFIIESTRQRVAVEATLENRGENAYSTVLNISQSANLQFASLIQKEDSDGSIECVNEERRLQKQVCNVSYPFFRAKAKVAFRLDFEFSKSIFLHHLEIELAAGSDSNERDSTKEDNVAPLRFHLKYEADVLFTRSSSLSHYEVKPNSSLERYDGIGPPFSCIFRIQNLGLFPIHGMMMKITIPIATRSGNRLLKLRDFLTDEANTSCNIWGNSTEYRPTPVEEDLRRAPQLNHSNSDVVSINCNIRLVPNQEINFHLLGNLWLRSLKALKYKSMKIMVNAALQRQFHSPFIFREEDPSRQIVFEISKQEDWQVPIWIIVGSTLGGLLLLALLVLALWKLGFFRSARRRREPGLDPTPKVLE
T2 sequence (P05556 21-798, chain 2 of 2): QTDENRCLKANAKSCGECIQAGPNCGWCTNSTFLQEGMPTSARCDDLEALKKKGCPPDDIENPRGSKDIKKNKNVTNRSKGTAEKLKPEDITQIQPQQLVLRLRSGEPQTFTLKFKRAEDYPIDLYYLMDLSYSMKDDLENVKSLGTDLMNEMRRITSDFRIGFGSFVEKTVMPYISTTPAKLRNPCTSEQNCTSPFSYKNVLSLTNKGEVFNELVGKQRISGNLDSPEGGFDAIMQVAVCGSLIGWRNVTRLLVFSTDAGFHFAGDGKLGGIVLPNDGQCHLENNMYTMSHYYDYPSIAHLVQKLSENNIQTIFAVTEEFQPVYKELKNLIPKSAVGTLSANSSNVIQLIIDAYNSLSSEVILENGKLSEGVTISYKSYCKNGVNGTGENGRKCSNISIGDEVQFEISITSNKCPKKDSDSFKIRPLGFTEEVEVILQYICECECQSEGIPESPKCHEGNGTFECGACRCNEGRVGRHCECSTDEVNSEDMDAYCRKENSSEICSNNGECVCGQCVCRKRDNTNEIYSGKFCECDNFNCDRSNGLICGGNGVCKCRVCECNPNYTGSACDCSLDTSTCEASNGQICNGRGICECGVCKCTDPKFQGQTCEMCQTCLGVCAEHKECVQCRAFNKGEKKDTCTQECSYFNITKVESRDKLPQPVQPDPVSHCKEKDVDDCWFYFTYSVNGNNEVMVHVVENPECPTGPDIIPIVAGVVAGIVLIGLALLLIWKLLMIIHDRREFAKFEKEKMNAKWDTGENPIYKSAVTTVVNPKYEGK

binding result	Binder
binds	B1
binds	B2
binds	B3
binds	B4
binds	B5
binds	B6
binds	B7
binds	B8
binds	B9
binds	B10
binds	B11

target: T1, in-house generated I domain of α11β1; test: binding to isolated I domain

binding result	Binder
no binding	B1
no binding	B2
no binding	B3
no binding	B4
no binding	B5
no binding	B6
no binding	B7
no binding	B8
no binding	B9
no binding	B10
no binding	B11

target: T3, recombinant human α11β1 (human, UniProt Q9UKX5 23-1141; P05556 21-728); test: ELISA on recombinant human α11β1
T3 construct: Coated in ELISA; ELISA and SPR material treated as one molecule; also called HIS-tagged human α11β1; integrin alpha 11 beta 1
Method: (§1) 0.25 μg/mL of target antigen (recombinant human or mouse α11β1) was plated in a 96-well plate over night at 4° C. Plates were washed (PBS with 0.1% Tween-20), blocked (PBS with 2% BSA and 0.05% Tween-20) for 1 hour at room temperature and incubated with a range of antibody concentrations for 1 hour at room temperature. Subsequently, plates were washed and incubated with biotinylated anti-rabbit/mouse/human IgG in a 1:1000 dilution buffer and incubated for 1 hour at room temperature. After washing the plates, Streptavidin HRP was added at 1:200 in dilution buffer and incubated for 1 hour at room temperature. Ultra TMB ELISA substrate solution was added and the plates incubated for 5 minutes on a plate shaker. The reaction was stopped by adding stop solution to each well and plates were read at 450 nm.

T3 sequence (Q9UKX5 23-1141 limits assumed, chain 1 of 2): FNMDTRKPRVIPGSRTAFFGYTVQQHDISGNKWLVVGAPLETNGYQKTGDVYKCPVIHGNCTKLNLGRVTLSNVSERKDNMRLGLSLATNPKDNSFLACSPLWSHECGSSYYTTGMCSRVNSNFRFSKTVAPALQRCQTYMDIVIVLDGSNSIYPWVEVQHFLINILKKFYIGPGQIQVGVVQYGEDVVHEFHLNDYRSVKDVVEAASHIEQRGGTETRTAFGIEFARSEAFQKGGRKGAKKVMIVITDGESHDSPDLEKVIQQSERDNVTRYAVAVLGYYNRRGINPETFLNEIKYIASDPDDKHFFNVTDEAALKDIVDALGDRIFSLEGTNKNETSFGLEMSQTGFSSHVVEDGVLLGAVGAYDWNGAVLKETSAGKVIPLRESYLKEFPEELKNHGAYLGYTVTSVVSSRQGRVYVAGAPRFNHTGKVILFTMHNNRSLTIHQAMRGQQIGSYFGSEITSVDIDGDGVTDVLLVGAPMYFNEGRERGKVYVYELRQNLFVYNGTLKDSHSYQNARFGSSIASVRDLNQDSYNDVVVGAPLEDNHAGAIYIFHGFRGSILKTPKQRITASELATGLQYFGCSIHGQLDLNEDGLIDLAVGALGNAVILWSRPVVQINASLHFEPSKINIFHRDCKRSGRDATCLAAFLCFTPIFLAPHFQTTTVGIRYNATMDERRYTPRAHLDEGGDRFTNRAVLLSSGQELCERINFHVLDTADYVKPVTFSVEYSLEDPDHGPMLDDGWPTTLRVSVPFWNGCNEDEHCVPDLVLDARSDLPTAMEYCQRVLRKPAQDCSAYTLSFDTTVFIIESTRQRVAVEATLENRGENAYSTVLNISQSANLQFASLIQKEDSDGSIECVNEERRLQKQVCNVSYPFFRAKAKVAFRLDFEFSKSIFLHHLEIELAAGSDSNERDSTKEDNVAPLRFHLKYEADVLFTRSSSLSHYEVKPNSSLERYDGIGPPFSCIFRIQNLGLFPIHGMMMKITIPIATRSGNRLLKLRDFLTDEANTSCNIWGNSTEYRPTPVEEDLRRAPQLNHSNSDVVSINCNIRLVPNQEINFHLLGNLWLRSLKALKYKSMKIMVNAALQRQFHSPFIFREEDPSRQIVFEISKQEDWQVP
T3 sequence (P05556 21-728 limits assumed, chain 2 of 2): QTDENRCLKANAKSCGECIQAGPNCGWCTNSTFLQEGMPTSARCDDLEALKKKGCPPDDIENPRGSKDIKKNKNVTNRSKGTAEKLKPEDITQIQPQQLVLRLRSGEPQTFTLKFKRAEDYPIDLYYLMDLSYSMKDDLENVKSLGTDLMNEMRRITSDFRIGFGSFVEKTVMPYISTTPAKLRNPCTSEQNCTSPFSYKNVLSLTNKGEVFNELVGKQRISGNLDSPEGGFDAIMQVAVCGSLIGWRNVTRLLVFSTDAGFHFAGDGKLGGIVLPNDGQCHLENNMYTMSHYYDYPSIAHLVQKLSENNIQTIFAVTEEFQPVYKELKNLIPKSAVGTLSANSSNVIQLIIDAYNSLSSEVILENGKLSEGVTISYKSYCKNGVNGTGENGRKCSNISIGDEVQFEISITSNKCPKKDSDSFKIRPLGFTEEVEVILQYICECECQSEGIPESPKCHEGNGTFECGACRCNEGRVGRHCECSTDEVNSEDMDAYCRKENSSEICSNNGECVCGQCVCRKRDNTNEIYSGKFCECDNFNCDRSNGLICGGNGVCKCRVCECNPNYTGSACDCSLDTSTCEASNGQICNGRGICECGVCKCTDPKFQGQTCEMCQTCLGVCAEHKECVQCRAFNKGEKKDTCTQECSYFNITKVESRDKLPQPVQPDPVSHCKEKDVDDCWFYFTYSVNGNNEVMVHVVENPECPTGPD

binding result	Binder
binds	B1
binds	B2
binds	B3
binds	B4
binds	B5
binds	B6
binds	B7
binds	B8
binds	B9
binds	B10
binds	B11

target: T4, recombinant mouse α11β1 (mouse, UniProt P61622 23-1141; P09055 21-728, limits assumed); test: ELISA on recombinant mouse α11β1
T4 construct: also called murine α11β1
Method: as §1

binding result	Binder
no binding	B1
binds	B2
no binding	B3
no binding	B4
no binding	B5
no binding	B6
binds	B7
no binding	B8
binds	B9
no binding	B10
no binding	B11

Reference: patent publication US20230050972A1 (MOMENTA PHARMACEUTICALS, published 2023)
